According to IntAct's records for PubMed 36373674:

B1: SMC5-SMC6 complex localization factor protein 2 (Homo sapiens), Q8IX21 (parent)
chain: MTRRCMPARPGFPSSPAPGSSPPRCHLRPGSTAHAAAGKRTESPGDRKQSIIDFFKPASKQDRHMLDSPQKSNIKYGGSRLSITGTEQFERKLSSPKESKPKRVPPEKSPIIEAFMKGVKEHHEDHGIHESRRPCLSLASKYLAKGTNIYVPSSYHLPKEMKSLKKKHRSPERRKSLFIHENNEKNDRDRGKTNADSKKQTTVAEADIFNNSSRSLSSRSSLSRHHPEESPLGAKFQLSLASYCRERELKRLRKEQMEQRINSENSFSEASSLSLKSSIERKYKPRQEQRKQNDIIPGKNNLSNVENGHLSRKRSSSDSWEPTSAGSKQNKFPEKRKRNSVDSDLKSTRESMIPKARESFLEKRPDGPHQKEKFIKHIALKTPGDVLRLEDISKEPSDETDGSSAGLAPSNSGNSGHHSTRNSDQIQVAGTKETKMQKPHLPLSQEKSAIKKASNLQKNKTASSTTKEKETKLPLLSRVPSAGSSLVPLNAKNCALPVSKKDKERSSSKECSGHSTESTKHKEHKAKTNKADSNVSSGKISGGPLRSEYGTPTKSPPAALEVVPCIPSPAAPSDKAPSEGESSGNSNAGSSALKRKLRGDFDSDEESLGYNLDSDEEEETLKSLEEIMALNFNQTPAATGKPPALSKGLRSQSSDYTGHVHPGTYTNTLERLVKEMEDTQRLDELQKQLQEDIRQGRGIKSPIRIGEEDSTDDEDGLLEEHKEFLKKFSVTIDAIPDHHPGEEIFNFLNSGKIFNQYTLDLRDSGFIGQSAVEKLILKSGKTDQIFLTTQGFLTSAYHYVQCPVPVLKWLFRMMSVHTDCIVSVQILSTLMEITIRNDTFSDSPVWPWIPSLSDVAAVFFNMGIDFRSLFPLENLQPDFNEDYLVSETQTTSRGKESEDSSYKPIFSTLPETNILNVVKFLGLCTSIHPEGYQDREIMLLILMLFKMSLEKQLKQIPLVDFQSLLINLMKNIRDWNTKVPELCLGINELSSHPHNLLWLVQLVPNWTSRGRQLRQCLSLVIISKLLDEKHEDVPNASNLQVSVLHRYLVQMKPSDLLKKMVLKKKAEQPDGIIDDSLHLELEKQAYYLTYILLHLVGEVSCSHSFSSGQRKHFVLLCGALEKHVKCDIREDARLFYRTKVKDLVARIHGKWQEIIQNCRPTQGQLHDFWVPDS
partner: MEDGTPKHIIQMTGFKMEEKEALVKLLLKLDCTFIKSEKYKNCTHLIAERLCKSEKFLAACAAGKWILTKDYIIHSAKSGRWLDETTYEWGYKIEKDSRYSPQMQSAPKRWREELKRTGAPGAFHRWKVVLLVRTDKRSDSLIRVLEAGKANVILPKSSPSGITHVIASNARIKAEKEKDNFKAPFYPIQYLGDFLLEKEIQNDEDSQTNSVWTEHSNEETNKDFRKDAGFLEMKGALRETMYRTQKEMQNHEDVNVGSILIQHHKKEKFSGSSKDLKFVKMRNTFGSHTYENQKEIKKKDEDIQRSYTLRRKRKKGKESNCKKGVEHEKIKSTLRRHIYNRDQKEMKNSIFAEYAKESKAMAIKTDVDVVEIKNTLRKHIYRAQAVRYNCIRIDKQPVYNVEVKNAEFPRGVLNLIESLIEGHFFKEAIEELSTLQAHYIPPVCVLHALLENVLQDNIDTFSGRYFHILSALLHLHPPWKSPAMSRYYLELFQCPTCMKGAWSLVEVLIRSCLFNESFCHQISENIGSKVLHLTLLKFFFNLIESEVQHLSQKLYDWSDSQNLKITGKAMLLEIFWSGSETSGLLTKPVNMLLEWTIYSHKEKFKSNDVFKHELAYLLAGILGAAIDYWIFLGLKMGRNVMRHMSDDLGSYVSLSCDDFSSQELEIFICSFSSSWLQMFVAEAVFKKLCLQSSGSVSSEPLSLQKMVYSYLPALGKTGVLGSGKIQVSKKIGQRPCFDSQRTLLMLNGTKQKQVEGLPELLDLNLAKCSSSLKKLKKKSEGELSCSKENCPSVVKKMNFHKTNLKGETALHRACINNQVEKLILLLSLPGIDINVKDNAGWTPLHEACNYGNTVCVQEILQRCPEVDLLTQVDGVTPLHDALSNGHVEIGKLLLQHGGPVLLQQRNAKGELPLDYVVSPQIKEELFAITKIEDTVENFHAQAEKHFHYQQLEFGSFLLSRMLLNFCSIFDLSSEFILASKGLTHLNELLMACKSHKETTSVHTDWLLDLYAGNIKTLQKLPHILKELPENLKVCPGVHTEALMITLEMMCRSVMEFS
B2: SMC5-SMC6 complex localization factor protein 1 (Homo sapiens), Q9BQI6 (parent)
chain: B1 partner
partner: B1 chain

Variants of: B1
Conditions: with slf1_human SLF1, Q9BQI6

Row | Variant | effect of a mutation on the interaction
1 | C820W;I821W | with no effect
2 | M831R;I835R | disrupting interaction strength

Further lines, results first:

Row | effect of a mutation on the interaction | Variant
3 | disrupting interaction strength | L775E;F786E;F792E
4 | disrupting interaction strength | P957D;V959D;W1006A

Variants of: B2
Conditions: with slf2_human SLF2, Q8IX21

Row | effect of a mutation on the interaction | Variant
5 | disrupting interaction strength | F957E;L964E
6 | disrupting interaction strength | G464D;H468E;A472D;L476E
7 | disrupting interaction strength | A1042D;I1045E;M1049E
